Tests used:
tdg_human TDG [1] = biological target: tdg_human TDG (UniProt Q13569)
tdg_mouse Tdg = tdg_mouse Tdg (UniProt P56581)
tdg_human TDG [2] = biological target: tdg_human TDG (UniProt Q13569); remark: listed apart in the source

tdg_mouse Tdg, sequence (P56581 whole entry): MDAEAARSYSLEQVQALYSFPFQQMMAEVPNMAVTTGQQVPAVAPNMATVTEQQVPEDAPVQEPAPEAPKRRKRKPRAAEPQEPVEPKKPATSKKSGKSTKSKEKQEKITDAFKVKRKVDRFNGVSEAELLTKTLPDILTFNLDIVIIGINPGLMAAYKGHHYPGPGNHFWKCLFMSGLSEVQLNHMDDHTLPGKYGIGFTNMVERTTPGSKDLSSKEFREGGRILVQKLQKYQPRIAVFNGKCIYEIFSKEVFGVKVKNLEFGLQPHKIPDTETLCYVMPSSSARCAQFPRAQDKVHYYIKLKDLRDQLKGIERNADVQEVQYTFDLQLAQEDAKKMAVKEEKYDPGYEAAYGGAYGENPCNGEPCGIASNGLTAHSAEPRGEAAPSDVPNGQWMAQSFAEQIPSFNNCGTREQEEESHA
tdg_human TDG, sequence (Q13569 whole entry): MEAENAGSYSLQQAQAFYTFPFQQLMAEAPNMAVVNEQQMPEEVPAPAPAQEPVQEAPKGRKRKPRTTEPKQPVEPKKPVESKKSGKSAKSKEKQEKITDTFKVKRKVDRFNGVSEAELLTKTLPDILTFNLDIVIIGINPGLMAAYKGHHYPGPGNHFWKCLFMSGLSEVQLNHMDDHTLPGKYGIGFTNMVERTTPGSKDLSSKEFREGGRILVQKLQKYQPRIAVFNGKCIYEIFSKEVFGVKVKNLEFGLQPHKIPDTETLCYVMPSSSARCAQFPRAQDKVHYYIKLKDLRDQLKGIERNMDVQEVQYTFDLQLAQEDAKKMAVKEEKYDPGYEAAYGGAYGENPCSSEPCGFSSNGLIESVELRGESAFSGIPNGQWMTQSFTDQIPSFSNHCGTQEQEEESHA
Nuclear receptor coactivator 1 (Homo sapiens), Q15788-2 Y991F;Y1169F, sequence (Q15788 other isoform, or with tags, fused parts or gaps Y991F;Y1169F): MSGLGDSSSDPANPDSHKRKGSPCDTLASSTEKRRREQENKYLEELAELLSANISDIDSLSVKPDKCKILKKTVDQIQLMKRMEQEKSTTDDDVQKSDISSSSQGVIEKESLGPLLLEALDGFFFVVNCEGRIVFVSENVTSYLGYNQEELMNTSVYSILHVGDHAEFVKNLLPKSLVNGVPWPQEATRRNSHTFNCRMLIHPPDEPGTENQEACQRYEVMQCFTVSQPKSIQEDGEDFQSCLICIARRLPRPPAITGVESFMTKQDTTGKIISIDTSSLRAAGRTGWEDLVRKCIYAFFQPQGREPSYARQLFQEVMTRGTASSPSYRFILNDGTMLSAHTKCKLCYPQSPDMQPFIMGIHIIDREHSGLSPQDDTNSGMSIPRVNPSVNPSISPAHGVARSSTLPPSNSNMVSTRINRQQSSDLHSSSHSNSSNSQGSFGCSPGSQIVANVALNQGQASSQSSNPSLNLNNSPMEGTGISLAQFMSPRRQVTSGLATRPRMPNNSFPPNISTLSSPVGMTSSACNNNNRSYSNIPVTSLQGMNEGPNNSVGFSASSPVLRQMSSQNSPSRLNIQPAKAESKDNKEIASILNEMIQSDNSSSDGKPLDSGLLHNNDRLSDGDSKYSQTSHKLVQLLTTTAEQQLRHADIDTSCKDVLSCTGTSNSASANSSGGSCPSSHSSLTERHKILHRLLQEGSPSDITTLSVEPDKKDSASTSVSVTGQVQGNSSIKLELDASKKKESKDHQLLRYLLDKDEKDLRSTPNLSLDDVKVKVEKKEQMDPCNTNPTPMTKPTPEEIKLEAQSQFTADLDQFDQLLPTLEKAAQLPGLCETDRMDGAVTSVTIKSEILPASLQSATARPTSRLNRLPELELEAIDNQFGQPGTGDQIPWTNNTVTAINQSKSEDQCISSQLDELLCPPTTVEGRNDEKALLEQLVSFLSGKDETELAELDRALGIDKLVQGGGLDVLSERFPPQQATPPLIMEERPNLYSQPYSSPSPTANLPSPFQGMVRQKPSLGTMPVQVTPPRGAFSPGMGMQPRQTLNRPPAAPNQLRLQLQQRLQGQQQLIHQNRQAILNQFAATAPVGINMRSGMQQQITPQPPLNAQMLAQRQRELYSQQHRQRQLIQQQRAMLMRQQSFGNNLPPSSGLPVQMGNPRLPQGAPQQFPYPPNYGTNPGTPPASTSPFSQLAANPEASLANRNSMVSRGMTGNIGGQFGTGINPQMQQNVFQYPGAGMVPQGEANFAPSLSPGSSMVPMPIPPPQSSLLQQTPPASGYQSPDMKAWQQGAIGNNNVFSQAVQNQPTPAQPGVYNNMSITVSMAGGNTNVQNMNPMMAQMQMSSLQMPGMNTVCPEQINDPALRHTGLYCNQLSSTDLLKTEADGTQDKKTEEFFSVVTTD
Nuclear receptor coactivator 1 (Homo sapiens), Q15788-2 Y1169F, sequence (Q15788 other isoform, or with tags, fused parts or gaps Y1169F): as the sequence (Q15788 other isoform, or with tags, fused parts or gaps Y991F;Y1169F) above
Nuclear receptor coactivator 1 (Homo sapiens), Q15788-2 Y991F, sequence (Q15788 other isoform, or with tags, fused parts or gaps Y991F): as the sequence (Q15788 other isoform, or with tags, fused parts or gaps Y991F;Y1169F) above

Row | Substance | effect of a mutation on the interaction (tdg_human TDG [1]) | effect of a mutation on the interaction (tdg_mouse Tdg) | effect of a mutation on the interaction (tdg_human TDG [2])
1 | Nuclear receptor coactivator 1 (Homo sapiens), Q15788-2 Y991F;Y1169F | disrupting interaction strength | – | –
2 | Nuclear receptor coactivator 1 (Homo sapiens), Q15788-2 Y991F | decreasing interaction strength | – | –
3 | Nuclear receptor coactivator 1 (Homo sapiens), Q15788 Y1169F | – | decreasing interaction strength | decreasing interaction strength

The next lines start with the values.

Row | effect of a mutation on the interaction (tdg_human TDG [1]) | effect of a mutation on the interaction (tdg_mouse Tdg) | effect of a mutation on the interaction (tdg_human TDG [2]) | Substance
4 | – | decreasing interaction strength | decreasing interaction strength | Nuclear receptor coactivator 1 (Homo sapiens), Q15788 Y991F
5 | – | decreasing interaction strength | decreasing interaction strength | Nuclear receptor coactivator 1 (Homo sapiens), Q15788 Y991F;Y1169F
6 | disrupting interaction strength | – | – | Nuclear receptor coactivator 1 (Homo sapiens), Q15788-2 Y1169F

From IntAct's records for PubMed 16282588
